What all share (experiment): enzyme inhibition kinetics
In experiment [1] the target is factor XIa catalytic domain K170A (human) (UniProt P03951).
In experiment [2] the target is factor XIa catalytic domain K175A (human).
In experiment [3] the target is factor XIa catalytic domain K179A (human).
Experiment [4] deals with factor XIa catalytic domain R173A (human) (UniProt P03951).
For experiment [5], the target named is full-length factor XIa autolysis loop variant fXIa-144-149A (human).
For experiment [6], the target named is factor XIa catalytic domain K170A (human) (UniProt P03951). This is another data set of the same source.
Experiment [7] deals with factor XIa catalytic domain K175A (human). This is another data set of the same source.
Experiment [8] deals with factor XIa catalytic domain K179A (human). The source holds these as a separate data set.
Experiment [9] concerns the target factor XIa catalytic domain R171A (human) (UniProt P03951).
Experiment [10] addresses factor XIa catalytic domain R173A (human) (UniProt P03951). This is another data set of the same source.
The target of experiment [11] is full-length factor XIa autolysis loop variant fXIa-144-149A (human). This is another data set of the same source.
Experiment [12] has the same target. The source holds these as a separate data set.
Experiment [13] concerns the target factor XIa catalytic domain K175A (human). The source holds these as a separate data set.
In experiment [14] the target is factor XIa catalytic domain K179A (human). This is another data set of the same source.
Experiment [15] deals with factor XIa catalytic domain R171A (human) (UniProt P03951). This is another data set of the same source.
Experiment [16] deals with factor XIa catalytic domain R173A (human) (UniProt P03951). The source holds these as a separate data set.
In experiment [17] the target is recombinant wild type factor XIa catalytic domain (human) (UniProt P03951).
For experiment [18], the target named is wild type recombinant factor XIa, full length (human).

Read-outs that look alike come from different tables or passages of the source.

B1: C1-inhibitor (natural protein)
chain: NPNATSSSSQDPESLQDRGEGKVATTVISKMLFVEPILEVSSLPTTNSTTNSATKITANTTDEPTTQPTTEPTTQPTIQPTQPTTQLPTDSPTQPTTGSFCPGPVTLCSDLESHSTEAVLGDALVDFSLKLYHAFSAMKKVETNMAFSPFSIASLLTQVLLGAGENTKTNLESILSYPKDFTCVHQALKGFTTKGVTSVSQIFHSPDLAIRDTFVNASRTLYSSSPRVLSNNSDANLELINTWVAKNTNNKISRLLDSLPSDTRLVLLNAIYLSAKWKTTFDPKKTRMEPFHFKNSVIKVPMMNSKKYPVAHFIDQTLKAKVGQLQLSHNLSLVILVPQNLKHRLEDMEQALSPSVFKAIMEKLEMSKFQPTLLTLPRIKVTTSQDMLSIMEKLEFFDFSYDLNLCGLTEDPDLQVSAMQHQTVLELTETGVEAAAASAISVARTLLVFEVQQPFLFVLWDQQHKFPVFMGRVYDPRA
Regarding B1, the k2 (second-order inhibition rate constant) was 10000 M⁻¹ s⁻¹ in experiment [1]; 7300 M⁻¹ s⁻¹ in [2]; 8800 M⁻¹ s⁻¹ in experiment [3]; 9100 M⁻¹ s⁻¹ in [4]; 19500 M⁻¹ s⁻¹ in experiment [5]; 1200 M⁻¹ s⁻¹ in experiment [6]. Besides, the k2 (second-order inhibition rate constant) in experiment [7] stood at 1000 M⁻¹ s⁻¹; in experiment [8], 1100 M⁻¹ s⁻¹; in experiment [9] it was 600 M⁻¹ s⁻¹; in [10], 1300 M⁻¹ s⁻¹; in experiment [11], 19200 M⁻¹ s⁻¹; in experiment [12], 600 M⁻¹ s⁻¹. The k2 (second-order inhibition rate constant) in experiment [13] amounted to 730000 M⁻¹ s⁻¹; in experiment [14], 778000 M⁻¹ s⁻¹; in experiment [15] it was 261000 M⁻¹ s⁻¹; in experiment [16] it was 667000 M⁻¹ s⁻¹; in experiment [17], 750000 M⁻¹ s⁻¹; in experiment [18], 536000 M⁻¹ s⁻¹.

The values above are taken from publication PMC2654577.
